Experimental data from US20250320281A1.

How the values were obtained:
Assay in all cases: cell-based or functional assay
[1] = biological target: HIV-1 Env of isolate 92RW008 (pseudovirus) (HIV-1)
[2] = biological target: HIV-1 Env of isolate 92TH021 (pseudovirus) (HIV-1)
[3] = biological target: HIV-1 Env of isolate 92UG031 (pseudovirus) (HIV-1)
[4] = biological target: HIV-1 Env of isolate 92UG037 (pseudovirus) (HIV-1)
[5] = biological target: HIV-1 Env of isolate 92WR009 (pseudovirus) (HIV-1)
[6] = biological target: HIV-1 Env of isolate 92WR020 (pseudovirus) (HIV-1)
[7] = biological target: HIV-1 Env of isolate 92WR021 (pseudovirus) (HIV-1)
[8] = biological target: HIV-1 Env of isolate 92WR024 (pseudovirus) (HIV-1)
[9] = biological target: HIV-1 Env of isolate 92WR026 (pseudovirus) (HIV-1)
[10] = biological target: HIV-1 Env of isolate 93UG077 (pseudovirus) (HIV-1)
[11] = biological target: HIV-1 Env of isolate 93WR029 (pseudovirus) (HIV-1)
[12] = biological target: HIV-1 Env of isolate 94KE105 (pseudovirus) (HIV-1)
[13] = biological target: HIV-1 Env of isolate 94UG103 (pseudovirus) (HIV-1)
[14] = biological target: HIV-1 Env of isolate CMU02 (pseudovirus) (HIV-1)
[15] = biological target: HIV-1 Env of isolate MGRM-A-001 (pseudovirus) (HIV-1)
[16] = biological target: HIV-1 Env of isolate MGRM-A-002 (pseudovirus) (HIV-1)
[17] = biological target: HIV-1 Env of isolate MGRM-A-003 (pseudovirus) (HIV-1)
[18] = biological target: HIV-1 Env of isolate MGRM-A-004 (pseudovirus) (HIV-1)
[19] = biological target: HIV-1 Env of isolate MGRM-A-005 (pseudovirus) (HIV-1)
[20] = biological target: HIV-1 Env of isolate MGRM-A-006 (pseudovirus) (HIV-1)
[21] = biological target: HIV-1 Env of isolate MGRM-A-007 (pseudovirus) (HIV-1)
[22] = biological target: HIV-1 Env of isolate MGRM-A-008 (pseudovirus) (HIV-1)
[23] = biological target: HIV-1 Env of isolate MGRM-A-009 (pseudovirus) (HIV-1)
[24] = biological target: HIV-1 Env of isolate MGRM-A-010 (pseudovirus) (HIV-1)
[25] = biological target: HIV-1 Env of isolate MGRM-A-011 (pseudovirus) (HIV-1)
[26] = biological target: HIV-1 Env of isolate MGRM-A-012 (pseudovirus) (HIV-1)
[27] = biological target: HIV-1 Env of isolate MGRM-A-013 (pseudovirus) (HIV-1)
[28] = biological target: HIV-1 Env of isolate MGRM-A-014 (pseudovirus) (HIV-1)
[29] = biological target: HIV-1 Env of isolate MGRM-AE-001 (pseudovirus) (HIV-1)
[30] = biological target: HIV-1 Env of isolate MGRM-AE-002 (pseudovirus) (HIV-1)
[31] = biological target: HIV-1 Env of isolate MGRM-AE-003 (pseudovirus) (HIV-1)
[32] = biological target: HIV-1 Env of isolate VLGCA1 (pseudovirus) (HIV-1)

PGT-122 (4877_D15) (antibody)
IC50 (µg/mL), pseudovirus neutralization [1]: 0.003 µg/mL
IC50 (µg/mL), pseudovirus neutralization [2]: > 50 µg/mL
IC50 (µg/mL), pseudovirus neutralization [3]: > 50 µg/mL
IC50 (µg/mL), pseudovirus neutralization [4]: 0.068 µg/mL
IC50 (µg/mL), pseudovirus neutralization [5]: 42.4 µg/mL
IC50 (µg/mL), pseudovirus neutralization [6]: 0.009 µg/mL
IC50 (µg/mL), pseudovirus neutralization [7]: 0.021 µg/mL
IC50 (µg/mL), pseudovirus neutralization [8]: > 50 µg/mL
IC50 (µg/mL), pseudovirus neutralization [9]: 0.036 µg/mL
IC50 (µg/mL), pseudovirus neutralization [10]: 0.084 µg/mL
IC50 (µg/mL), pseudovirus neutralization [11]: > 50 µg/mL
IC50 (µg/mL), pseudovirus neutralization [12]: 0.056 µg/mL
IC50 (µg/mL), pseudovirus neutralization [13]: 2.04 µg/mL
IC50 (µg/mL), pseudovirus neutralization [14]: > 50 µg/mL
IC50 (µg/mL), pseudovirus neutralization [15]: > 50 µg/mL
IC50 (µg/mL), pseudovirus neutralization [16]: 0.017 µg/mL
IC50 (µg/mL), pseudovirus neutralization [17]: 3.79 µg/mL
IC50 (µg/mL), pseudovirus neutralization [18]: > 50 µg/mL
IC50 (µg/mL), pseudovirus neutralization [19]: > 50 µg/mL
IC50 (µg/mL), pseudovirus neutralization [20]: > 50 µg/mL
IC50 (µg/mL), pseudovirus neutralization [21]: > 50 µg/mL
IC50 (µg/mL), pseudovirus neutralization [22]: > 50 µg/mL
IC50 (µg/mL), pseudovirus neutralization [23]: 0.012 µg/mL
IC50 (µg/mL), pseudovirus neutralization [24]: 2.51 µg/mL
IC50 (µg/mL), pseudovirus neutralization [25]: > 50 µg/mL
IC50 (µg/mL), pseudovirus neutralization [26]: 0.257 µg/mL
IC50 (µg/mL), pseudovirus neutralization [27]: 2.47 µg/mL
IC50 (µg/mL), pseudovirus neutralization [28]: 0.007 µg/mL
IC50 (µg/mL), pseudovirus neutralization [29]: > 50 µg/mL
IC50 (µg/mL), pseudovirus neutralization [30]: > 50 µg/mL
IC50 (µg/mL), pseudovirus neutralization [31]: > 50 µg/mL
IC50 (µg/mL), pseudovirus neutralization [32]: > 50 µg/mL
